We go through 1 protein from article PMC3781043, “A Transcript Profiling Approach Reveals an Abscisic Acid-Specific Glycosyltransferase (UGT73C14) Induced in Developing Fiber of Ligon lintless-2 Mutant of Cotton (Gossypium hirsutum L.)” (PLoS ONE, 2013).

Substrate in data set [1]: CC1=CC(=O)CC(C)(C)[C@@]1(O)/C=C/C(C)=C\C(=O)O
The data set is described as follows: HPLC-MS of ABA glucoside formed, hyperbolic regression. It is filed as biochemical, Gossypium hirsutum. The following applies: 2.5 mM UDP-glucose as sugar donor, 50 mM MgCl2, 500 µM ATP, 50 mM Tris-HCl pH 8.0, 30°C. An excerpt:
(§1) HPLC-MS of ABA glucoside formed, hyperbolic regression on UGT73C14

Substrate in data set [2]: CC1=CC(=O)CC(C)(C)[C@@]1(O)/C=C/C(C)=C/C(=O)O
The description is as above. The settings on record: 2.5 mM UDP-glucose as sugar donor, 50 mM MgCl2, 500 µM ATP, 50 mM Tris-HCl pH 8.0, 30°C. The data set is classed as biochemical, Gossypium hirsutum.
Description: as §1

B1: UGT73C14 (Gossypium hirsutum) (protein)
chain: AQGHFVLIPFMAQGHLIPMVDIGRLLAQRGVTVTIVTTPYNAGRVQKSVARAIESGLPIRLLQLQFPGKEVGLIDGVENIDMLHSMEDLIKFVSAANKMEEAMLKLFEKLTPRPNCIISDINLFYTRKIASKFQVPKISFHGFCCFCLLCLRNIQSSKINETVTSDSEYFTVPGLTDKVEFTRVQLPLDNDGSWKEIFEPMWEADRASYGVVINTFEELESAYVKEYRKEKKAWCIGPVSLSHKDELDMAERGNKTSIDGQKCLKWLDSQQPGSVIYACLGSIGTIKCPELIELGLGLEASNKPFIWVLRGNNPTASEVYKWIRRNEFEERTKGRGLVVVGWAPQVLILSHPAIGGFLTHCGWNSIIEGISAGVPLITFPFMGDQFCNEKLAVQILKIGVNLGANKPTMLGDEKSGFILNTEHVKNAIDKLMEQGNEGKEMRKRAKELGDEANKAVEVGGSSYMNITLLIQDILQQSQEMR
notes: about 99 kDa
Regarding B1, in data set [1], the Km is 61.7 µM, the Vmax was 221 µmol/min, the catalytic constant (kcat) stood at 7.2 s⁻¹ and the kcat/Km came to 115000 M⁻¹ s⁻¹. In data set [2], the Km was found to be 98.1 µM, the Vmax stood at 82.9 µmol/min, the kcat was determined as 2.7 s⁻¹ and the kcat/Km came out at 27100 M⁻¹ s⁻¹.
